The text below walks through data of publication PMC7226325.

This assay concerns the target recombinant Tepary bean lectin (rTBL-1) (Phaseolus acutifolius (Tepary bean)). In words: SEC; ENrich SEC 650 column, calibrated with gel filtration standard; 200 uL of protein at 10 mg/mL; 20 mM MES pH 6.5, 100 mM NaCl. On the technique in general: Size exclusion chromatography separates by hydrodynamic size, large species first.

“recombinant Tepary bean lectin (rTBL-1) (natural protein)”: the stoichiometry N (commonly the number of molecules, sites or subunits per partner or assembly) was 4.
